From publication PMC4728560 (Scientific Reports, 2016)
Entries after “also recorded” stand apart in the source; their conditions may differ.

Target: T1, Bcl-xL (Homo sapiens, UniProt Q07817, DEL27-82)
T1 construct: one containing the fragment 1-26, and the other the fragment 81-209; 6His (N, cleaved yes); made in house; host or cells: Escherichia coli BL21 (DE3) pRARE2
Assay: Heterocomplex formation with Bcl-xL (native MS, SEC-MALS, gel filtration)
Type: binding
Settings: native MS: Bcl-xL(Δ27-81ΔCT), equimolar 100 μM, 30 °C, checked at 5 μM (for TCTP-R21A)
Procedure: When not specified, proteins tested for binding experiments were mixed at 100 μM, dialyzed against 10 mM CHES pH 9, 50 mM NaCl, 1 mM DTT or TCEP, depending on the analysis, and heated overnight at 30 °C.
For binding experiments, 100 to 200PL of protein mixture were loaded on a size exclusion chromatography (S200, GE Healthcare) column, while elution profiles were measured by UV absorption at 280 nm.
SEC-MALS experiments were performed on a multi-angle light scattering detector (miniDAWN TREOS, Wyatt Technologies) coupled in-line with SEC and an interferometric refractometer (Optilab T-rEX, Wyatt Technologies). See Supplementary Information for full details.
Prior to any mass spectrometry experiment, protein buffer was exchanged twice against a 50 mM ammonium acetate (NH4Ac) solution at pH 9.0 using microcentrifuge gel filtration columns (Zeba 0.5 ml, Thermo Scientific, Rockford, IL). Protein concentration was determined spectrophotometrically. […]
Supplementary Table 1. Measured molecular weights in denaturing conditions Sample Theoretical molecular Measured molecular Associated mass (Da) mass (Da) species […]
Gel filtration. For binding experiments, 100 to 200PL of protein mixture were loaded on a size exclusion chromatography (S200, GE Healthcare) column, while elution profiles were measured by UV absorption at 280nm. […]

T1 sequence (Q07817 with tags, fused parts or gaps DEL27-82): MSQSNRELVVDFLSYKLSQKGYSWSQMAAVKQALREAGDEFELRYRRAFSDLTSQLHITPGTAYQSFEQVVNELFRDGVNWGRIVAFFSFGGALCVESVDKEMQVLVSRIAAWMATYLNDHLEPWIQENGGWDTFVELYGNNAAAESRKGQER

With “TCTP: Translationally Controlled Tumor Protein (TCTP/tpt1), recombinant full-length” the “complex formation with Bcl-xL” value was “forms a heterotetramer with Bcl-xL; also recorded: forms heterotetrameric complexes with Bcl-xL”.
